The text below walks through data of patent publication US20210340276A1 (Astellas, published 2021).

Experiment in all cases: ELISA, MUC1 peptide immobilized on 384-well plate, HRP anti-human Igκ detection, luminescence
In assay [1] the target is T1, Human cancer-specific MUC1 peptide (PTL 1) (human).
T1 construct: Immobilized at 0.5 µmol/L per well on a 384-well ELISA plate
As for the experimental part:
(§1) Human cancer-specific MUC1 peptide (PTL 1) was immobilized at 0.5 μmol/L per well onto a 384-well ELISA plate. The resultant was reacted with each anti-human MUC1 antibody Fab fragment conjugate described above (sample No. 5, 6, 7, or 3) and then reacted with a horseradish peroxidase-labeled goat anti-human Igκ antibody (Southern Biotechnology Associates, Inc.) as a secondary antibody. ECL Prime Western Blotting Detection Reagent (GE Healthcare Japan Corp.) was added thereto for luminescence, and the degree of the luminescence was examined.
(§2) Likewise, binding activity evaluation was also conducted as to the anti-human MUC1 antibody Fab fragment conjugates given below.

The target in assay [2] is T1, Human cancer-specific MUC1 peptide (PTL …). As for the experimental part:
as §1, §2
The source holds these as a separate data set.

Assay [3] shares this target. As for the experimental part: as §1
This is another data set of the same source.

Read-outs that look alike come from different tables or passages of the source.

B1: P10-2 Fab (Fab, V domains shown)
VH: QVQLVQSGAEVKKPGASVKVSCKASGYTFTNYGLSWVRQAPGQGLEWMGENHPGSGIIYHNEKFRGRVTLTADRSTSTAYMELSSLRSEDTAVYYCARSSGTRGFDYWGQGTLVTVSS
VL: DVVMTQTPLSLSVTPGQPASISCRSSQSIVHSNGNTYLEWYLQKPGQSPQLLIYRVSNRFSGVPDRFSGSGSGTDFTLKISRVEAEDVGVYYCFQGSHGPWTFGQGTKLEIKR
modifications: heavy chain N-terminal glutamine modified into pyroglutamic acid in a great majority of purified antibodies (Example 2)
notes: expressed in Expi293F cells, purified with KappaSelect; also called anti-human MUC1 antibody Fab fragment P10-2
In the case of B1, the values for the EC50 in assay [1], in assay [2] and in assay [3] were 170 pM, 160 pM and 230 pM, respectively.
